Assay results from patent US20030143192A1.

Target: human CCR3 (human) (UniProt P51677)
Experiment: cell-based or functional assay

Chain of human CCR3 (human) (P51677 whole entry): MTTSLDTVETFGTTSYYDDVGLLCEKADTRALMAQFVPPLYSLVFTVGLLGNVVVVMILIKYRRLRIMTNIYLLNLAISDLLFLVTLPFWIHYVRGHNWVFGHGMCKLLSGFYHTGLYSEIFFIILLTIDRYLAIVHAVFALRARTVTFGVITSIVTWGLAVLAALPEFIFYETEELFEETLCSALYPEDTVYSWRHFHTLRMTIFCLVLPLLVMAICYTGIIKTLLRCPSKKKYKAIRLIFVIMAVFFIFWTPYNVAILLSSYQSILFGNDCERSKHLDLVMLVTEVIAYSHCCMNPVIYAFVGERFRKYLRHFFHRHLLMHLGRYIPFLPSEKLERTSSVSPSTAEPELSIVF

reduction of 25 nM eotaxin-induced Ca^2+ flux in HOS-CCR3 cells by 100 nM antagonist: 35%
Substance: aminooxypentane (AOP)-RANTES (from UniProt P13501 24-91) (ligand)
